{"source": "paper PMC1618809", "about": "(Molecular Microbiology, 2006)", "binders": {"B1": {"name": "Plasmodium falciparum thioredoxin 2 (PfTrx2), construct PfTrx2-S3 lacking the first 47 amino acids (domain or fragment)", "chain": "MFKKVPRLQQNGSNIINGVNMKNTVIVLYFFAKWCQACTMQSTEMDKLQKYYGKRIYLLKVDLDKNESLARKFSVKSLPTIILLKNKTMLARKDHFVSSNDLIALIKKHL"}, "B2": {"name": "Plasmodium falciparum thioredoxin 1 (PfTrx1), cytosolic thioredoxin (natural protein)", "chain": "MVKIVTSQAEFDSIISQNELVIVDFFAEWCGPCKRIAPFYEECSKTYTKMVFIKVDVDEVSEVTEKENITSMPTFKVYKNGSSVDTLLGANDSALKQLIEKYAA"}, "B3": {"name": "Plasmodium falciparum mitochondrial peroxiredoxin (PfTrx-Px2), recombinant protein from construct pftrx-px2-2 lacking the first 19 amino acids (enzyme, UniProt Q8I5Q6 20-216, looked up)", "chain": "SLVTKKAYNFTAQGLNKNNEIINVDLSSFIGQKYCCLLFYPLNYTFVCPTEIIEFNKHIKDFENKNVELLGISVDSVYSHLAWKNMPIEKGGIGNVEFTLVSDINKDISKNYNVLYDNSFALRGLFIIDKNGCVRHQTVNDLPIGRNVQEVLRTIDSIIHVDTSGEVCPINWKKGQKAFKPTTESLIDYMNNANKNV"}}, "key": {"[1]": {"target": "T1, PfTrx-Px2Mut1 (Asn62Tyr63 replaced by AspPhe) (Plasmodium falciparum) (UniProt Q8I5Q6)", "T1 sequence": "B3 chain with N43D, Y44F"}, "[2]": {"target": "T2, PfTrx-Px2Mut2 (Phe139Ala140 replaced by ValSer) (Plasmodium falciparum) (UniProt Q8I5Q6)", "T2 sequence": "B3 chain with F120V, A121S"}, "AUC": {"target": "the molecule itself", "assay": "AUC"}}, "note": "Positions count from the first letter of the chain named.", "data": [{"binder": "B1", "values": [{"measurement": "KM^app of PfTrx-Px2Mut1 for Trx2; coupled peroxidase assay", "setting": "[1]", "result": 7.7, "unit": "µM"}, {"measurement": "KM^app of PfTrx-Px2Mut2 for Trx2; coupled peroxidase assay", "setting": "[2]", "result": 12.1, "unit": "µM"}]}, {"binder": "B2", "values": [{"measurement": "KM^app of PfTrx-Px2Mut1 for Trx1; coupled peroxidase assay", "setting": "[1]", "result": 86.2, "unit": "µM"}, {"measurement": "KM^app of PfTrx-Px2Mut2 for Trx1; coupled peroxidase assay", "setting": "[2]", "result": 78.8, "unit": "µM"}]}, {"binder": "B3", "values": [{"measurement": "stoichiometry N", "setting": "AUC", "result": 10}]}]}
